Data reported in publication PMC12930632, “Free fatty acid receptor 2 allosterism is defined by cellular context” (Cell Communication and Signaling : CCS, 2026).
Where two headings read alike, the source gives them in different places. Each block holds one molecule with its values, some of them ahead of it.

What was measured:
FFA2R (GPR43) = target: T1, FFA2R (GPR43) (Homo sapiens, UniProt O15552); test: ebBRET effector membrane translocation assay (Rap1GAP-RlucII / rGFP-CAAX), Galpha-i1 activation; assay type: cell-based
T1 construct: gene FFAR2; full-length WT receptor, transiently transfected in HEK293T cells together with a defined Galpha subunit, Rap1GAP-RlucII and rGFP-CAAX; plasmid from cDNA.org
T1 sequence (O15552 1-330): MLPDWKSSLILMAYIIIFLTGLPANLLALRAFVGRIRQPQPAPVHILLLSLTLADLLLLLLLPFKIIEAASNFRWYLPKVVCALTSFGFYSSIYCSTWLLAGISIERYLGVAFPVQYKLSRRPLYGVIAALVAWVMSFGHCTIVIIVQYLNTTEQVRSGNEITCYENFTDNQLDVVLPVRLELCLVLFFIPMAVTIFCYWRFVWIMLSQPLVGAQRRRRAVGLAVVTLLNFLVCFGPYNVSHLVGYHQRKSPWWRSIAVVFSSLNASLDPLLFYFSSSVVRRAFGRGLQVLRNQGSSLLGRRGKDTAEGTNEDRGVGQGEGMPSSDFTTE
Excerpt: ebBRET effector membrane translocation assay (Rap1GAP-RlucII / rGFP-CAAX), Galpha-i1 activation on FFA2R (GPR43)

[1] = target: T2, free fatty acid receptor 2 (FFA2R; GPR43), WT (human) (UniProt O15552)
T2 sequence: T1 sequence (O15552 1-330)

[2] = target: T2, free fatty acid receptor 2 (FFA2R; GPR43), WT (human); remark: listed apart in the source
[3] = target: T2, free fatty acid receptor 2 (FFA2R; GPR43), WT (human); remark: listed apart in the source

Chain of β-arrestin1-RlucII (P49407 whole entry): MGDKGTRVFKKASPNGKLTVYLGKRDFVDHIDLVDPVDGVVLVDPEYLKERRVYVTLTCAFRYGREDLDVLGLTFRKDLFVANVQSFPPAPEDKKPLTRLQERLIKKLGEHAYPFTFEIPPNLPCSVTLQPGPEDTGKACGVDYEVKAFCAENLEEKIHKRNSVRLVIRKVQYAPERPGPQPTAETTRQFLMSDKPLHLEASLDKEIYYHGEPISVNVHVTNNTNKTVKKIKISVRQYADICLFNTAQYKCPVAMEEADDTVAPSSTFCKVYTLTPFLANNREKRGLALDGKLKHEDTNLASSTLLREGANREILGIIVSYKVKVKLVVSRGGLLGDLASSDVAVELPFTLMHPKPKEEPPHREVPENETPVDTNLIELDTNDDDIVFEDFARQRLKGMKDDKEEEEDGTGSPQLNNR
Chain of β-arrestin2-RlucII (P32121 whole entry): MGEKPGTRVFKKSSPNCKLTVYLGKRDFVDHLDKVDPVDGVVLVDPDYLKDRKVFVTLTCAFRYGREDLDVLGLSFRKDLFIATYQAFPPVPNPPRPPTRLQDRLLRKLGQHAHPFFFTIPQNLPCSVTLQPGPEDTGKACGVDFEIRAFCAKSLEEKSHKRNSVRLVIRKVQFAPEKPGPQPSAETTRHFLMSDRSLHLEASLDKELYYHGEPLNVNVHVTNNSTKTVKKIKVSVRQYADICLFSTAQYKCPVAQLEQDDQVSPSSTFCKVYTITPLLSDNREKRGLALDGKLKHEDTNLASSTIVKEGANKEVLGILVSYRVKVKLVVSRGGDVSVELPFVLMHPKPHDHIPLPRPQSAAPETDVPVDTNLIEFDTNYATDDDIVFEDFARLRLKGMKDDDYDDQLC

Molecule: CC(C)(C)[C@H](C(=O)Nc1ncc(-c2ccccc2)s1)c1ccc(Cl)cc1 [Cmp58, (S)-2-(4-chlorophenyl)-3,3-dimethyl-N-(5-phenylthiazol-2-yl)butanamide]
- EC50 (FFA2R (GPR43); read-out: Cmp58 / EC50): 2280 nM

Molecule: Gα11 (from UniProt P29992 1-359) (natural protein)
- ebBRET (EMTA) max response, p63RhoGEF-RlucII + rGFP-CAAX, HEK293T; propionate series up to 1 mM [1]: 1.82 ∆BRET^2
- ebBRET (EMTA) max response, p63RhoGEF-RlucII + rGFP-CAAX, HEK293T; Cmp58 series, alone [2]: 0.33 ∆BRET^2
- ebBRET (EMTA) max response, p63RhoGEF-RlucII + rGFP-CAAX, HEK293T; propionate series after AZ1729 (1 µM, 5 min), vehicle and modulator-alone signals subtracted [3]: 1.36 ∆BRET^2
- ebBRET (EMTA) max response, p63RhoGEF-RlucII + rGFP-CAAX, HEK293T; propionate series after Cmp58 (1 µM, 5 min), vehicle and modulator-alone signals subtracted [3]: 1.41 ∆BRET^2

Molecule: Gαi2 (from UniProt P04899 1-355) (natural protein)
- ebBRET (EMTA) max response, Rap1GAP-RlucII + rGFP-CAAX, HEK293T; propionate series up to 1 mM [1]: 0.865 ∆BRET^2
- ebBRET (EMTA) max response, Rap1GAP-RlucII + rGFP-CAAX, HEK293T; AZ1729 series, alone [2]: 0.664 ∆BRET^2
- ebBRET (EMTA) max response, Rap1GAP-RlucII + rGFP-CAAX, HEK293T; Cmp58 + AZ1729 series, no propionate [2]: 0.59 ∆BRET^2
- ebBRET (EMTA) max response, Rap1GAP-RlucII + rGFP-CAAX, HEK293T; Cmp58 series, alone [2]: 0.567 ∆BRET^2
- ebBRET (EMTA) max response, Rap1GAP-RlucII + rGFP-CAAX, HEK293T; propionate series after AZ1729 (1 µM, 5 min), vehicle and modulator-alone signals subtracted [3]: 0.481 ∆BRET^2
- ebBRET (EMTA) max response, Rap1GAP-RlucII + rGFP-CAAX, HEK293T; propionate series after Cmp58 (1 µM, 5 min), vehicle and modulator-alone signals subtracted [3]: 0.74 ∆BRET^2

Molecule: Gαi3 (from UniProt P08754 1-354) (natural protein)
- ebBRET (EMTA) max response, Rap1GAP-RlucII + rGFP-CAAX, HEK293T; propionate series up to 1 mM [1]: 0.859 ∆BRET^2
- ebBRET (EMTA) max response, Rap1GAP-RlucII + rGFP-CAAX, HEK293T; AZ1729 series, alone [2]: 0.553 ∆BRET^2
- ebBRET (EMTA) max response, Rap1GAP-RlucII + rGFP-CAAX, HEK293T; Cmp58 + AZ1729 series, no propionate [2]: 0.485 ∆BRET^2
- ebBRET (EMTA) max response, Rap1GAP-RlucII + rGFP-CAAX, HEK293T; Cmp58 series, alone [2]: 0.574 ∆BRET^2
- ebBRET (EMTA) max response, Rap1GAP-RlucII + rGFP-CAAX, HEK293T; propionate series after AZ1729 (1 µM, 5 min), vehicle and modulator-alone signals subtracted [3]: 0.533 ∆BRET^2
- ebBRET (EMTA) max response, Rap1GAP-RlucII + rGFP-CAAX, HEK293T; propionate series after Cmp58 (1 µM, 5 min), vehicle and modulator-alone signals subtracted [3]: 0.485 ∆BRET^2

Molecule: GαoA (from UniProt P09471 1-354) (natural protein)
- ebBRET (EMTA) max response, Rap1GAP-RlucII + rGFP-CAAX, HEK293T; propionate series up to 1 mM [1]: 0.415 ∆BRET^2
- ebBRET (EMTA) max response, Rap1GAP-RlucII + rGFP-CAAX, HEK293T; AZ1729 series, alone [2]: 0.19 ∆BRET^2
- ebBRET (EMTA) max response, Rap1GAP-RlucII + rGFP-CAAX, HEK293T; Cmp58 series, alone [2]: 0.237 ∆BRET^2

Molecule: GαoB (from UniProt P09471-2 1-354) (natural protein)
- ebBRET (EMTA) max response, Rap1GAP-RlucII + rGFP-CAAX, HEK293T; propionate series up to 1 mM [1]: 1.81 ∆BRET^2
- ebBRET (EMTA) max response, Rap1GAP-RlucII + rGFP-CAAX, HEK293T; AZ1729 series, alone [2]: 0.994 ∆BRET^2
- ebBRET (EMTA) max response, Rap1GAP-RlucII + rGFP-CAAX, HEK293T; Cmp58 + AZ1729 series, no propionate [2]: 0.937 ∆BRET^2
- ebBRET (EMTA) max response, Rap1GAP-RlucII + rGFP-CAAX, HEK293T; Cmp58 series, alone [2]: 0.742 ∆BRET^2
- ebBRET (EMTA) max response, Rap1GAP-RlucII + rGFP-CAAX, HEK293T; propionate series after AZ1729 (1 µM, 5 min), vehicle and modulator-alone signals subtracted [3]: 1.62 ∆BRET^2
- ebBRET (EMTA) max response, Rap1GAP-RlucII + rGFP-CAAX, HEK293T; propionate series after Cmp58 (1 µM, 5 min), vehicle and modulator-alone signals subtracted [3]: 1.48 ∆BRET^2

Molecule: Gαq (from UniProt P50148 1-359) (natural protein)
- ebBRET (EMTA) max response, p63RhoGEF-RlucII + rGFP-CAAX, HEK293T; propionate series up to 1 mM [1]: 1.55 ∆BRET^2
- ebBRET (EMTA) max response, p63RhoGEF-RlucII + rGFP-CAAX, HEK293T; AZ1729 series, alone [2]: 0.337 ∆BRET^2
- ebBRET (EMTA) max response, p63RhoGEF-RlucII + rGFP-CAAX, HEK293T; Cmp58 + AZ1729 series, no propionate [2]: 0.121 ∆BRET^2
- ebBRET (EMTA) max response, p63RhoGEF-RlucII + rGFP-CAAX, HEK293T; Cmp58 series, alone [2]: 0.132 ∆BRET^2
- ebBRET (EMTA) max response, p63RhoGEF-RlucII + rGFP-CAAX, HEK293T; propionate series after AZ1729 (1 µM, 5 min), vehicle and modulator-alone signals subtracted [3]: 1.04 ∆BRET^2
- ebBRET (EMTA) max response, p63RhoGEF-RlucII + rGFP-CAAX, HEK293T; propionate series after Cmp58 (1 µM, 5 min), vehicle and modulator-alone signals subtracted [3]: 1.01 ∆BRET^2

Molecule: β-arrestin1-RlucII (from UniProt P49407 1-418) (natural protein)
- ebBRET max response, β-arrestin1-RlucII + rGFP-CAAX (with or without GRK2), HEK293T; propionate series up to 1 mM [1]: 0.23 ∆BRET^2
- ebBRET max response, β-arrestin1-RlucII + rGFP-CAAX (with or without GRK2), HEK293T; AZ1729 series, alone [2]: 0.166 ∆BRET^2
- ebBRET max response, β-arrestin1-RlucII + rGFP-CAAX (with or without GRK2), HEK293T; Cmp58 series, alone [2]: 0.0827 ∆BRET^2

Molecule: β-arrestin2-RlucII (from UniProt P32121 1-409) (natural protein)
- ebBRET max response, β-arrestin2-RlucII + rGFP-CAAX (with or without GRK2), HEK293T; propionate series up to 1 mM [1]: 0.799 ∆BRET^2
- ebBRET max response, β-arrestin2-RlucII + rGFP-CAAX (with or without GRK2), HEK293T; propionate series after AZ1729 (1 µM, 5 min), vehicle and modulator-alone signals subtracted [3]: 0.775 ∆BRET^2
- ebBRET max response, β-arrestin2-RlucII + rGFP-CAAX (with or without GRK2), HEK293T; propionate series after Cmp58 (1 µM, 5 min), vehicle and modulator-alone signals subtracted [3]: 0.774 ∆BRET^2

Second part, the molecule after the results:

- EC50 (FFA2R (GPR43); read-out: AZ1729 / EC50): 41 nM
Molecule: Cc1nc(NC(=N)N)sc1-c1cccc(NC(=O)c2ccc(F)cc2)c1 [AZ1729]

- ebBRET (EMTA) max response, PDZ-RhoGEF-RlucII + rGFP-CAAX, HEK293T; propionate series up to 1 mM [1]: 0.588 ∆BRET^2
Molecule: Gα13 (from UniProt Q14344 1-377) (natural protein)

- ebBRET (EMTA) max response, p63RhoGEF-RlucII + rGFP-CAAX, HEK293T; propionate series up to 1 mM [1]: 0.677 ∆BRET^2
- ebBRET (EMTA) max response, p63RhoGEF-RlucII + rGFP-CAAX, HEK293T; AZ1729 series, alone [2]: 0.614 ∆BRET^2
- ebBRET (EMTA) max response, p63RhoGEF-RlucII + rGFP-CAAX, HEK293T; Cmp58 series, alone [2]: 0.195 ∆BRET^2
Molecule: Gα14 (from UniProt O95837 1-355) (natural protein)

- ebBRET (EMTA) max response, p63RhoGEF-RlucII + rGFP-CAAX, HEK293T; propionate series up to 1 mM [1]: 0.68 ∆BRET^2
- ebBRET (EMTA) max response, p63RhoGEF-RlucII + rGFP-CAAX, HEK293T; AZ1729 series, alone [2]: 0.74 ∆BRET^2
- ebBRET (EMTA) max response, p63RhoGEF-RlucII + rGFP-CAAX, HEK293T; Cmp58 + AZ1729 series, no propionate [2]: 0.43 ∆BRET^2
- ebBRET (EMTA) max response, p63RhoGEF-RlucII + rGFP-CAAX, HEK293T; Cmp58 series, alone [2]: 0.588 ∆BRET^2
- ebBRET (EMTA) max response, p63RhoGEF-RlucII + rGFP-CAAX, HEK293T; propionate series after AZ1729 (a lower concentration than 1 µM, not given), vehicle and modulator-alone signals subtracted [3]: 0.533 ∆BRET^2
- ebBRET (EMTA) max response, p63RhoGEF-RlucII + rGFP-CAAX, HEK293T; propionate series after Cmp58 (a lower concentration than 1 µM, not given), vehicle and modulator-alone signals subtracted [3]: 0.503 ∆BRET^2
Molecule: Gα15 (from UniProt P30679 1-374) (natural protein)

- ebBRET (EMTA) max response, Rap1GAP-RlucII + rGFP-CAAX, HEK293T; propionate series up to 1 mM [1]: 0.755 ∆BRET^2
- ebBRET (EMTA) max response, Rap1GAP-RlucII + rGFP-CAAX, HEK293T; AZ1729 series, alone [2]: 0.584 ∆BRET^2
- ebBRET (EMTA) max response, Rap1GAP-RlucII + rGFP-CAAX, HEK293T; Cmp58 + AZ1729 series, no propionate [2]: 0.6 ∆BRET^2
- ebBRET (EMTA) max response, Rap1GAP-RlucII + rGFP-CAAX, HEK293T; Cmp58 series, alone [2]: 0.525 ∆BRET^2
- ebBRET (EMTA) max response, Rap1GAP-RlucII + rGFP-CAAX, HEK293T; propionate series after AZ1729 (1 µM, 5 min), vehicle and modulator-alone signals subtracted [3]: 0.817 ∆BRET^2
- ebBRET (EMTA) max response, Rap1GAP-RlucII + rGFP-CAAX, HEK293T; propionate series after Cmp58 (1 µM, 5 min), vehicle and modulator-alone signals subtracted [3]: 0.841 ∆BRET^2
Molecule: Gαi1 (from UniProt P63096 1-354) (natural protein)

- ebBRET (EMTA) max response, Rap1GAP-RlucII + rGFP-CAAX, HEK293T; propionate series up to 1 mM [1]: 0.757 ∆BRET^2
Molecule: Gαz (from UniProt P19086 1-355) (natural protein)
